In this assay the target is GII.4 norovirus. Description: capture on a column of Con A-linked resin, real-time RT-PCR; the dilution applied held about 3.39 copies/µL; no Ct value in the non-Con A-linked resin.

Among the data in US20160090640A1 are virus concentrated through the Con A-linked resin column values, retold here.

Consider “Concanavalin A (Con A) (Sigma-Aldrich, USA) (from UniProt P02866 30-281)”, for which the virus concentrated through the Con A-linked resin column was 2.16 copies/µL.
